Assay results: patent US20190234935A1 (Janssen / Centocor, published 2019)

Legend:
Assay in all cases: FACS on transfected HEK293F cells
[1] = target: T1, N-terminally flag tagged full-length GFRα2 on transiently transfected HEK293F cells (Homo sapiens (Human), UniProt O00451 22-444)
T1 sequence: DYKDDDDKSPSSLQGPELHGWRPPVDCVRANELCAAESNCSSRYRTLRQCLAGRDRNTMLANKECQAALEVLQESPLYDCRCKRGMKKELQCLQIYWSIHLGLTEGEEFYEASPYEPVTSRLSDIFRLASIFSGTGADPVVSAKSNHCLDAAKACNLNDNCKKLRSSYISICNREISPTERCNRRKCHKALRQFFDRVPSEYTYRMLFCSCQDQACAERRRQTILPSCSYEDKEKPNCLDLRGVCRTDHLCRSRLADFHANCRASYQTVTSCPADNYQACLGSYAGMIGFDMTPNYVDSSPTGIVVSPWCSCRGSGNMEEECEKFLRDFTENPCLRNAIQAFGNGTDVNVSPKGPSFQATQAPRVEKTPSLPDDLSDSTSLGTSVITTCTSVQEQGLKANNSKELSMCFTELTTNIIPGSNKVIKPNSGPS
Experimental: (§1) For the confirmation of specific binding of GDF15 to GFRAL, HEK293F cells expressing the N-terminally flag tagged GFRAL, GFRα1, GFRα2, GFRα3 or GFRα4 were incubated with Fc-GDF15 and the binding was analyzed by FACS. Briefly, transiently transfected cells were spun down two days post transfection, washed with 1×BD staining buffer (BD Pharmingen) and treated with 5 μg/ml of Fc-GDF15 by incubating at 4° C. for 1 hour in 1×BD staining buffer (BD Pharmingen). Cells were subsequently washed and stained with the secondary antibody, goat anti-human IgG conjugated with Alexa Fluor 647 (AF647, Life Technologies), at 4° C. for 30 min, for the detection of Fc-GDF15 binding. Cells from the same batch of transfection were also stained with an Fc isotype negative control, and with FITC-labeled anti-flag antibody (Sigma) for the detection of cell surface expression, and DAPI for live/dead staining. The stained cells were analyzed on BD Fortessa LSR.

[2] = target: T2, N-terminally flag tagged full-length GFRα3 on transiently transfected HEK293F cells (Homo sapiens (Human), UniProt O60609 32-374)
T2 sequence: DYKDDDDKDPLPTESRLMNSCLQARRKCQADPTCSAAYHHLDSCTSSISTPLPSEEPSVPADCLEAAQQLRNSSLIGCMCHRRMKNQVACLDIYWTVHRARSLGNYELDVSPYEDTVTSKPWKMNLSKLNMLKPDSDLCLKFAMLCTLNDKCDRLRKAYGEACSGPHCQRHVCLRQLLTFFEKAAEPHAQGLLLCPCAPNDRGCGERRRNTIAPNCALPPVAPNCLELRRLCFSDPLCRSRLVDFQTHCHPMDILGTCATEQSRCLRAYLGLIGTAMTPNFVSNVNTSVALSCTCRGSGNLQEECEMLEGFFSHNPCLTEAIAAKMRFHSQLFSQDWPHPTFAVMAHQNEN
Experimental: as §1

[3] = target: T3, N-terminally flag tagged full-length GFRα1 on transiently transfected HEK293F cells (Homo sapiens (Human), UniProt P56159 25-429)
T3 sequence: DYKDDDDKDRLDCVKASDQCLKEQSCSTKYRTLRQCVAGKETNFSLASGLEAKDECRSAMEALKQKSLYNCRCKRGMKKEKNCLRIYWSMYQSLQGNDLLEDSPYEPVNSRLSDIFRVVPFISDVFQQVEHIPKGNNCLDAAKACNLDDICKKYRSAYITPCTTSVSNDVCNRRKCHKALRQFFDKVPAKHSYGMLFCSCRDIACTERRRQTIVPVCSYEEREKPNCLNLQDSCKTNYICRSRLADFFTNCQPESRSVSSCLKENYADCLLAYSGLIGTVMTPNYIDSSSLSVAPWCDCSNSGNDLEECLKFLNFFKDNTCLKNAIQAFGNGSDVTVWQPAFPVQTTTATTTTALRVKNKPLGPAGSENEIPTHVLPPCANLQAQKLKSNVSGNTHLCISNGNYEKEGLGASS
Experimental: as §1

[4] = target: T4, N-terminally flag tagged full-length GFRα4 on transiently transfected HEK293F cells (Homo sapiens (Human), UniProt Q9GZZ7 21-278)
T4 sequence: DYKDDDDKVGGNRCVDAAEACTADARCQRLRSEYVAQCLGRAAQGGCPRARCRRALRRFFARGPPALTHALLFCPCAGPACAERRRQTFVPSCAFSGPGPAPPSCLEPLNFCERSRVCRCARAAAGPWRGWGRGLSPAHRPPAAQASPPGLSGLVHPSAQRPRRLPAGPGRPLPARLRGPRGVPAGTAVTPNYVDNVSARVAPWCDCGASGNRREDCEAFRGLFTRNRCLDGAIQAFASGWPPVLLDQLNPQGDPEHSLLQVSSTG
Experimental: as §1

binding result [1]: no binding (tested: 5 µg/ml)
binding result [2]: no binding (tested: 5 µg/ml)
binding result [3]: no binding (tested: 5 µg/ml)
binding result [4]: no binding (tested: 5 µg/ml)
B1: heterodimeric Fc-GDF15 fusion molecule (Fc fusion)
chain 1: CPPCPAPEAAGGPSVFLFPPKPKDTLMISRTPEVTCVVVDVSQEDPEVQFNWYVDGVEVHNAKTKPREEQFNSTYRVVSVLTVLHQDWLNGKEYKCKVSNKGLPSSIEKTISKAKGQPREPQVYTLPPSQEEMTKNQVSLSCAVKGFYPSDIAVEWESNGQPENNYKTTPPVLDSDGSFFLVSRLTVDKSRWQEGNVFSCSVMHEALHNHYTQKSLSLSLGKGSGGGARNGDHCPLGPGRCCRLHTVRASLEDLGWADWVLSPREVQVTMCIGACPSQFRAANMHAQIKTSLHRLKPDTVPAPCCVPASYNPMVLIQKTDTGVSLQTYDDLLAKDCHCI
chain 2: CPPCPAPEAAGGPSVFLFPPKPKDTLMISRTPEVTCVVVDVSQEDPEVQFNWYVDGVEVHNAKTKPREEQFNSTYRVVSVLTVLHQDWLNGKEYKCKVSNKGLPSSIEKTISKAKGQPREPQVYTLPPSQEEMTKNQVSLWCLVKGFYPSDIAVEWESNGQPENNYKTTPPVLDSDGSFFLYSRLTVDKSRWQEGNVFSCSVMHEALHNHYTQKSLSLSLGK
notes: also called Fc-GDF15 ligand
